Data as given in patent US12441811B2, “Compositions and methods for treating serpin B13 disorders” (REGENTS OF THE UNIVERSITY OF MINNESOTA, priority 2019, dated 2025).

Experiments:
catL = catL protease activity in cell extract from pancreatic tissue in vitro; format: biochemical; details: mAb added to cell extract from pancreatic tissue in vitro
[1] = test system: streptozotocin-induced diabetes; test: STZ-induced diabetes in adult offspring with gestational exposure to anti-serpinB13 mAb; format: in vivo, mouse; details: for preserved residual β-cell mass: 4 weeks after STZ 150 mg/kg in adulthood; for preserved residual β-cell mass / diabetes / severity of the disease: prenatal exposure; for diabetes / severity of the disease: STZ injected in adulthood, vs control antibody
Source text: Calculation of the islet mass. In embryos, the β-cell mass was expressed as the percentage of the area of all pancreatic sections combined, that positively stained with anti-insulin antibody. To calculate β-cell mass in adult mice, the percentage insulin-positive area was multiplied by the pancreas weight expressed in milligrams.
Diabetes induction and monitoring. C57BL/6 male mice, which are susceptible to STZ-induced diabetes, were subjected to a 6-hour period of bedding removal and fasting with unlimited access to drinking water. At the end of fasting, STZ was dissolved in a freshly prepared buffer (50 mM Sodium Citrate, pH 4.5) and immediately injected i.p. at 150 mg/kg. The glucose levels in tail blood were measured at random every 7 days for 4 weeks. Alternatively, to perform the glucose tolerance test, STZ-treated C57BL/6J male mice were first fasted for 6 hours with unlimited access to drinking water, and then injected i.p. with a 10% D-(+)-glucose solution (10 μL/g body weight). A glucometer (One-Touch Ultra) was used to monitor glucose levels using tail blood collected before glucose injection, and after injection at 30-min intervals for 2 hours. For glucometer glucose readings “above 600 mg/dL”, the data were extrapolated to the value of 700 mg/dL for algebraic statistical purposes only.

B1: B29: mouse monoclonal antibody to serpin B13, clone B29; heavy chain SEQ ID NO:14, kappa light chain SEQ ID NO:16 (antibody, V domains shown)
VH: QIQLVQSGPELKKPGETVKISCKASGYTFTTYGMSWVKQAPGKGLKWMGWINTYSGMPTYADDFKGRFAFSLETSATTAYLQINNLKNEDTATYFCARPLLGLDYWGQGTTLTVSS
VL: DIVMTQTPLSLSVTIGQPASISCKSSQSLLHSDGKTFLNWFLQRPGQSPKLLIYLVSKLESGIPDRFSGSGSGTDFTLKISRVEVEDLGVYYCLQHTHFPLTFGAGTKLEIK
- protease activity of catL (catL): dose-dependently enhanced
- loss of body weight ([1]; 1-4 weeks after STZ): prevented
- serum creatinine as a measure of renal function ([1]; 4 weeks after STZ): improved
- preserved residual β-cell mass ([1]; listed as anti-serpinB13 mAb): over two-fold greater
- preserved residual β-cell mass ([1]; listed as serpinB13 mAb): higher
- diabetes / severity of the disease [1]: helped to prevent severe diabetes
- diabetes / severity of the disease ([1]; listed as anti-serpinB13 antibody): improved outcomes
- diabetes / severity of the disease ([1]; listed as anti-serpinB13 mAb): either completely protected against diabetes (FIG. 24A-24B), or ameliorated the severity of the disease
- diabetes / severity of the disease ([1]; listed as mAb): improved resistance
- diabetes / severity of the disease ([1]; listed as serpinB13 mAb): reduced severity of disease
- blood glucose control ([1]; ipGTT at 2 weeks, random glucose 1-4 weeks after STZ): improved
